Measured values published in patent publication US20140271651A1 (AbbVie / Abbott, published 2014).

Biological target: T1, E. coli expressed human GP73 (amino acids 63 to 400) with C-terminal 6xHis tag (human, UniProt Q8NBJ4 64-401)
T1 construct: No human Fc, not glycosylated; also called GP73 produced in E. coli; E. coli GP73
T1 sequence: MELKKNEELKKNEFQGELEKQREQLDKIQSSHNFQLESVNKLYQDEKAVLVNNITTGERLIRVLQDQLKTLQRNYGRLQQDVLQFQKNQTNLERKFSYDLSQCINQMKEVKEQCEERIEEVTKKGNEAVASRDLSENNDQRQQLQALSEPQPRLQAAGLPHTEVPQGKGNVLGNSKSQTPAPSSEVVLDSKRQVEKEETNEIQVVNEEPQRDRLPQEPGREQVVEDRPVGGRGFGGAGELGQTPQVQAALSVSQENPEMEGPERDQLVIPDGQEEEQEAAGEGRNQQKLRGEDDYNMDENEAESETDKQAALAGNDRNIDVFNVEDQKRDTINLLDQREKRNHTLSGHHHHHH
Test: Western blot on E. coli expressed GP73 antigen
Experimental: The mammalian cell (HEK and CHO) expressed GP73-hFc or E. coli expressed GP73, as described above, were electrophoresed in a 4-20% SDS-PAGE gel. […] The nitrocellulose membrane was blocked with PBS buffer containing 5% non-fat dry milk and 0.05% Tween 20 for about 1 hr. The nitrocellulose membrane was incubated with an appropriate amount of anti-GP73 monoclonal antibody in 10 mL of 2.5% non-fat dry milk and 0.05% Tween 20 PBS buffer, pH 7.2. The nitrocellulose membranes were washed with 0.05% Tween 20/PBS, pH 7.2, incubated with goat anti-mouse IgG antibody conjugated with HRP for 1 hr at room temperature, and washed with 0.05% Tween 20/PBS buffer. Antibody bound to the GP73 protein was visualized by the addition of freshly prepared metal enhanced 3,3′-Diaminobenzidine in stable peroxide buffer (Pierce, Ill.).

B1: anti-GP73 monoclonal antibody 1B-4863 (antibody, V domains shown)
VH: QVQLKESGPGLVAPSQSLSITCTVSGFSLTSYGVHWVRQSPGKGLEWLGVIWTGGSTNYNSALMSRLSISKDNSESQVFLKVNSLQTDDTGMYYCARDPGTDYFDYWGQGTTLTVSS
VL: DIVMTQSHKFMSTSIGDRVSISCKASQDVSIDVSWYQQKPGQSPTLLIYSASYRYIGVPDRFTGSGSGTAFTFTISSVQAEDLAIYYCQQHFTTPLTFGAGTKLELKR
notes: Biotin labelled in some assays; also called mAb 1B-4863; 1B-4863-Bt
binding result: binds
